The values that follow come from US20220204643A1 (published 2022).

What all share (assay): protein array
For test [1], the target named is T1, phospholipid scramblase 4, transcript variant X4 (human, UniProt Q9NRQ2 1-329).
T1 construct: on protein array; also called PLSCR4
T1 chain: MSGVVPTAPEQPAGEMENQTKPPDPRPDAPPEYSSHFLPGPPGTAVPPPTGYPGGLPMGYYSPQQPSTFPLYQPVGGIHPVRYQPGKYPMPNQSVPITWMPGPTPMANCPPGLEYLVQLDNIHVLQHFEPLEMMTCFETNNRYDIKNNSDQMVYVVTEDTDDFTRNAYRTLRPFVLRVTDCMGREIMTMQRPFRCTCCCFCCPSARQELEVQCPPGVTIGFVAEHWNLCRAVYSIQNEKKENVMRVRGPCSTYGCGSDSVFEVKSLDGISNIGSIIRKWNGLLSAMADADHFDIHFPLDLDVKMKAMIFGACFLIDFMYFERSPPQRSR

Test [2] addresses T2, TruB pseudouridine synthase family member 1 (human, UniProt Q8WWH5 2-349).
T2 construct: on protein array; also called TRUB1
T2 sequence: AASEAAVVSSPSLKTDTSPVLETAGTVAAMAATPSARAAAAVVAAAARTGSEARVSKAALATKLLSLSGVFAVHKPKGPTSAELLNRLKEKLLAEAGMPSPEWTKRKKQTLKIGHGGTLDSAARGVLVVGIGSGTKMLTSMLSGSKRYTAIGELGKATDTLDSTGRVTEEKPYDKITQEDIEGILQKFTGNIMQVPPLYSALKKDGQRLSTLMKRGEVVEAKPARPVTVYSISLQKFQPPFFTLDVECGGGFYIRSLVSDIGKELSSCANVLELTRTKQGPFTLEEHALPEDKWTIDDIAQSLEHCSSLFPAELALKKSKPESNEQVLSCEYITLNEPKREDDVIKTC

For a further test, the target named is T3, extended synaptotagmin 2 (human, UniProt A0FGR8 564-921).
T3 construct: on protein array; also called ESYT2_frag
T3 sequence: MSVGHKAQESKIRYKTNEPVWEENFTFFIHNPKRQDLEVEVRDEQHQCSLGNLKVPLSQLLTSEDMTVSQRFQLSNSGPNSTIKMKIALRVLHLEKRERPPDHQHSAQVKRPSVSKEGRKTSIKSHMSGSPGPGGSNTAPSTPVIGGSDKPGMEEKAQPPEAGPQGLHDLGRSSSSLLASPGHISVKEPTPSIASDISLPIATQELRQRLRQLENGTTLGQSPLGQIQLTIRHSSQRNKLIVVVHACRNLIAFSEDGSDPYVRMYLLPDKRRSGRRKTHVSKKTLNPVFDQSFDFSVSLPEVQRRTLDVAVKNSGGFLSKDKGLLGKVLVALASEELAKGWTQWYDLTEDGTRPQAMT

Test [3] deals with T4, SNAP associated protein, transcript variant 1 (human, UniProt O95295 2-136).
T4 construct: on protein array; also called SNAPIN
T4 sequence: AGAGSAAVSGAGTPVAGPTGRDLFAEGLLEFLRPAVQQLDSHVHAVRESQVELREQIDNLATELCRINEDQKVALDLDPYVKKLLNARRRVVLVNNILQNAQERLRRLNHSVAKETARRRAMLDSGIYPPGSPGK

Test [4] deals with T5, KH RNA binding domain containing, signal transduction associated 2, transcript variant 2 (human, UniProt Q5VWX1 1-349).
T5 construct: on protein array; also called KHDRBS2
T5 sequence: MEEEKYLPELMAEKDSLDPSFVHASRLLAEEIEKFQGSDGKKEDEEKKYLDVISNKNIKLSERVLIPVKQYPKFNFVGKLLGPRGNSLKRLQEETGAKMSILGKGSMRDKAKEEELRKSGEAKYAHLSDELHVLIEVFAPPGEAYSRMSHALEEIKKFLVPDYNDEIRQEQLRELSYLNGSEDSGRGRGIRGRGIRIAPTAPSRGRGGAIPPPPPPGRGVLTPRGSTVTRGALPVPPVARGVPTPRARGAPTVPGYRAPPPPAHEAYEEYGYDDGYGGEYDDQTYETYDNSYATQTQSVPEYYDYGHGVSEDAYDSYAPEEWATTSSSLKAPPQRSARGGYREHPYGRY

For test [5], the target named is T6, nucleosome assembly protein 1 like 1, transcript variant 1 (human, UniProt P55209 2-388).
T6 construct: on protein array; also called NAP1L1
T6 sequence: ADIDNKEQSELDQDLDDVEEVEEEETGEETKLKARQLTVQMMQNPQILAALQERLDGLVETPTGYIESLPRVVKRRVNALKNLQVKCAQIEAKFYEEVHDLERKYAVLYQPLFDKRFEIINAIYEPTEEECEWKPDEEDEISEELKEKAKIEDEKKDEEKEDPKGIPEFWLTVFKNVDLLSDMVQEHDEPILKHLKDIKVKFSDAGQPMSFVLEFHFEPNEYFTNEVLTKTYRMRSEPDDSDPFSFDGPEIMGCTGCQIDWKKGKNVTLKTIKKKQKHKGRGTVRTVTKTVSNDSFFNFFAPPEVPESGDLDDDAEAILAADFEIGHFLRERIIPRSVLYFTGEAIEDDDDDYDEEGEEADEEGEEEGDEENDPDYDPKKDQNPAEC

Test [6] has as its target T7, nudE neurodevelopment protein 1, transcript variant 1 (human, UniProt Q9NXR1 1-335).
T7 construct: on protein array; also called NDE1
T7 sequence: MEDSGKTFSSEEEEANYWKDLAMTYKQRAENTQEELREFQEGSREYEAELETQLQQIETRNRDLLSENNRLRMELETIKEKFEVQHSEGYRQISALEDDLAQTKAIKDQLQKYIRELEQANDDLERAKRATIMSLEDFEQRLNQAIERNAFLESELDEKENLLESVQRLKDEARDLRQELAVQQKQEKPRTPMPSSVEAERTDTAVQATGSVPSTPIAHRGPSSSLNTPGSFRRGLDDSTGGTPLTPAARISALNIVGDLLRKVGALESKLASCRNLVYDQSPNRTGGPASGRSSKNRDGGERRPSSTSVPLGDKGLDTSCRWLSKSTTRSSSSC

Test [7] has as its target T8, sorting nexin 33, transcript variant 1 (human, UniProt Q8WV41 1-574).
T8 construct: on protein array; also called SNX33
T8 sequence: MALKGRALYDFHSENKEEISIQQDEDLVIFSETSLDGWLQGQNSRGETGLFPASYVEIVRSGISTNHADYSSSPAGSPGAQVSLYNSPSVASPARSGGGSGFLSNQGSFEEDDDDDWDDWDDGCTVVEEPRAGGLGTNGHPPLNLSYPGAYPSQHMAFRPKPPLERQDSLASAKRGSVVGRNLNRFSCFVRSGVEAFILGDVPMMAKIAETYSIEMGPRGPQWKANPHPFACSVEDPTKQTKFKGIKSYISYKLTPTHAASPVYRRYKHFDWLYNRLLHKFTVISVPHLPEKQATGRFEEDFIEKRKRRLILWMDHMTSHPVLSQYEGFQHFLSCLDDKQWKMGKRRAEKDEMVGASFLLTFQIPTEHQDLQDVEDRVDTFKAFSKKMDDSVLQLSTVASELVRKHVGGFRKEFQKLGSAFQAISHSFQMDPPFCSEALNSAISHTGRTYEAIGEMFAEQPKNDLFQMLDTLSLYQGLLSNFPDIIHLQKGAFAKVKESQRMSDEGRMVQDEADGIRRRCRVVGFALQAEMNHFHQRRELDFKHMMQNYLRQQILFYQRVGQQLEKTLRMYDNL

B1: TCER1003 (antibody, V domains shown)
VH: QITLKESGPTLVKPTQTLTLTCTFSGFSLTTTDVGVGWIRQPPGKALEWLTIIYWDDDERYSPSLKSRLTITKDTSKNQVVLSMTNMDPVDTATYYCARVYSTKWDFDYWGQGTLVTVSS
VL: VSSELTQDPAVSVALGQTVRITCQGDSLRRYYVSWYRQKPGEAPVVVIYGKNNRPSWIPDRLSGSSSGNTASLTITGAQAEDEADYYCCSRDSSGNPWVFGGGTKLTVLG
notes: VH/VL only
In the case of B1, the binding result in test [1] and in test [2] was “binds” in each case.

B2: TCOL1004 (antibody, V domains shown)
VH: QVQLQESGPGLVKPSQTLSLTCIVSGGSISGDKNFWSWVRQHPEKGLEWLGYISYNGNTYYNPSLISRIIISLDTPKNLFSLRLSSVTVADTAIYYCAREVDIRGDSDAFDIWGRGTVVTVSS
VL: EIVMTQSPATLSVSPGERATLSCRASQSVSTNLAWYQQRPGQAPRLFIFGASTRATGIPARFSGSGSGTEFTLTISSPQPEDSAVYYCQQYTTRPLTFGGGTKVEIKR
notes: VH/VL only
For B2, the binding result with extended synaptotagmin 2 is on record as “binds”.

B3: TBLA1006 (antibody, V domains shown)
VH: VQLVDSGGGLVQPGRSLRLSCAASGFVFDDYAMHWVRQVPGKGLEWVSGISWNSVSIGYADSVKGRFTISRDNAKNSLYLQMNSLRPEDAALYYCVKSFSAEYYYYYYGMDVWGQGTTVTVSS
VL: LYVLTQPPSVSVAPGTTAWISCGGNNIGIKSVHWYQQKPGQAPLLVISYDSDRPSVIPERFSVSNSGNTVTLTISRVEAGDEADYYCQVWDNGHSHWVFGGGTKLTVLG
notes: VH/VL only
As to B3, in test [3], the binding result is given as “binds”.

B4: TCHO1001 (antibody, V domains shown)
VH: PVHLVQSGAEVKKPGSSVKVSCKLSGGIFSYFAIIWVRQAPGQGLEWMGTIIPIFGTSNYAEKFQDRVAIVADEATSTVYMEVNSLRSEDTAIYFCARDSEVEKSDGYMASTAEYFQLWGQGTLVTVSS
VL: not shown
notes: VH/VL only
In the case of B4, in test [4], the binding result was “binds”.

B5: TCER1001 (antibody, V domains shown)
VH: EVQLVESGGGLVQPGRSLRLSCAASGFTFDDYAMHWVRQAPGKGLEWVSGISWNSGSIGYADSVKGRFTISRDNAKNSLYLQMNSLRAEDTALYYCAKDLLGFRDQRNYYGMDVWGQGTTVTVSS
VL: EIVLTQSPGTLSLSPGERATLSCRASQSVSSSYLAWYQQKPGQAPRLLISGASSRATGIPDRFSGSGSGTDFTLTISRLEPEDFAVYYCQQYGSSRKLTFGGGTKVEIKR
notes: VH/VL only
Turning to B5, the binding result in test [5] was “binds”.

B6: TCER1002 (antibody, V domains shown)
VH: QVQLQESGPGLVKPSETLSLSCTVSGASMNNYYWSWIRQSAGKGLEWIGRIYSSGDTDYNPSLKTRVTMSIDTSKNQFSLNLDSVTAADTATYYCARSFYDTLFYFENWGQGTLVTVSS
VL: DIQMTQSPSTLSASVGDRVTITCRASQSISVWLAWYQQKPGKAPKLLIYKASTLEAGVPSRFSGSGSGTEFSLTISGLQPDDFGTYFCQHYDSYPWTFGQGTKVEMK
notes: VH/VL only
For the molecule B6, the binding result in test [6] is given as “binds”.

B7: TCER1006 (antibody, V domains shown)
VH: EVQLVQSGAEVKKPGESLKISCKGSGYSFTSFWIGWVRQMPGKGLEWMGIIFPADSDTRYSPSFQGQVIISVDKSISTAYLQWSSLKASDTAMYYCARRGVSGGSAWTYYNFFDPWGQGTLVTVAS
VL: PSVLTQPPSVSAAPGQKVTISCSGSSSNIDNNYVSWYQQLPGTAPKLLIYENNKRASGIPDRFSGSKSGTSATLGITGLQTGDEADYYCGTWDSSLSPGGVFGGGTKLTVLG
notes: VH/VL only
As to B7, in test [7], the binding result is “binds”.
